According to patent US20250282887A1 (Amgen, published 2025):

What was measured:
[1] = target: T1, Human MAGEB2 (Melanoma-associated antigen B2) (human, UniProt O15479 1-319); experiment: IHC on FFPE NCI-H82 cells (endogenous MAGEB2)
T1 construct: Intracellular antigen detected by IHC in FFPE material: CHO cells transfected with human MAGEB2 (mCherry vector with Myc/DDK tags, or ORF without tags)
T1 sequence: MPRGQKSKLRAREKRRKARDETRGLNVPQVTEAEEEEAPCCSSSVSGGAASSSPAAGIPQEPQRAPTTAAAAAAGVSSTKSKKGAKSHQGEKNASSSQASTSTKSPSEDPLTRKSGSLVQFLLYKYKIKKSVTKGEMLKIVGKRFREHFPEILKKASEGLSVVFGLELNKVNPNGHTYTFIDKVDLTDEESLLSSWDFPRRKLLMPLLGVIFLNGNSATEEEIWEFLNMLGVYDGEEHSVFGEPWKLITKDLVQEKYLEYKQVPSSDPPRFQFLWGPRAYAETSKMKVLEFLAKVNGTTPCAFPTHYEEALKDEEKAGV
Protocol: (§1) FFPE samples were sectioned at 4 μm and mounted on positive charged glass slides. After mounting, paraffin sections were air-dried at room temperature. FFPE TMA samples were received as freshly sectioned and mounted on glass slides. The fully automated IHC assay was performed on a Discovery Ultra Stainer (Ventana Medical Systems, Tucson, AZ) using Ventana Anti-Rabbit HQ (cat #760-4815), Ventana Anti-HQ HRP (cat #760-4820), and Ventana Antibody Diluent with Casein (cat #760-219) (Ventana Medical Systems, Tucson, AZ). The slides were baked on the Discovery Ultra Stainer at 60° C. for 8 minutes, de-paraffinized with Ventana Discovery wash (cat #950-510) for 3 cycles (8 minutes each) at 69° C., and underwent cell conditioning (target retrieval) at 95° C. for 16 minutes (for cell arrays) or 32 minutes (tissues or TMAs) in CC1 buffer (cat #950-500). Following this, slides were incubated with Background Sniper (cat #BS966M, Biocare Medical, Pacheco, CA) in a Ventana Option Prep kit (cat #771-751) for 28 minutes, incubated with CM inhibitor (a part of the Ventana DAB kit cat #760-159) for 12 minutes, and incubated for 1 h at RT with MAGE-B2 antibody diluted with Ventana diluent with Casein in a Ventana Prep kit (cat #770-001) (working concentration at 0.1 μg/ml for cell pellet, or 1-5 ug/ml for tissues) or with a matched concentration of isotype control Rabbit IgG1 antibody. Following this, slides were incubated with the Ventana Anti-Rabbit HQ (cat #760-4815) for 28 minutes at RT, Ventana Anti-HQ HRP (cat #760-4820) for 28 minutes at RT, and signals detected with Ventana DAB chromogen kit (cat #760-159) for 5 minutes at RT. Slides were counterstained with Ventana Hematoxylin II (cat #5266726001) for 8 minutes and Ventana Bluing reagent (cat #526676900) for 4 minutes. Slides were coverslipped and digitized using an Aperio AT2 scanner (Leica Biosystems Inc, Buffalo Grove, IL).

human MAGEB5 = target: T2, human MAGEB5 (human, UniProt Q9BZ81 1-275); experiment: IHC, FFPE CHO cells transfected with human MAGEB5
T2 construct: whole, on cells; Transfected into CHO cells with Myc/DDK tags; also called CHO-MAGEB5+ cells
T2 sequence (looked up): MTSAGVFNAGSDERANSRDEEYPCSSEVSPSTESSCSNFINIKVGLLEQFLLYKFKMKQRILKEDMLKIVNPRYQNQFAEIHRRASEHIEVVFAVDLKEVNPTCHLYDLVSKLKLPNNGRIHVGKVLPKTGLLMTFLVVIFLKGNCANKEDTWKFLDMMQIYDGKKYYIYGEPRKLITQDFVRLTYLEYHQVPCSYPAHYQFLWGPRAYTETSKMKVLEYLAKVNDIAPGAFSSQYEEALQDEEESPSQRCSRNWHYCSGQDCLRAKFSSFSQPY
Description: Negative control cells included parental Chinese hamster ovary (CHO) cells, CHO cells stably transfected with mCherry Vector Control (minus Myc/DDK tags), CHO cells stably transfected with mCherry-human DCAF4L2 (plus Myc/DDK tags). The cross-reactivity control cells included CHO cells transfected with mCherry Vector Control (plus Myc/DDK tags) with one of the human MAGE-B or MAGE-A family members (MAGEA1, MAGEA2, MAGEA3, MAGEA4, MAGEA5, MAGEA6, MAGEA8, MAGEA9, MAGEA11, MAGEA12, MAGEB1, MAGEB3, MAGEB4, MAGEB5, MAGEB6, MAGEB10, MAGEB16, MAGEB17, MAGEB18). Positive control cell lines included CHO cells transfected with mCherry Vector (plus Myc/DDK tags) with human MAGE-B2 or CHO cells transfected with mCherry Vector (open reading frame (ORF); minus Myc/DDK tags) with human MAGEB2, and thirteen human cancer cell lines with known endogenous RNA expression level of MAGEB2 (U266B1, T98G, KMM-1, U20S, CFPAC-1, SCaBER, UACC-257, CFPAC-1, VMRC-LCD, NCI-H1703, UM-UC-3, NCI-H1395, NCIH82).
as §1, with “antibody.” for “antibody. Following this, slides were incubated with the Ventana Anti-Rabbit HQ (cat #760-4815) for 28 minutes at RT, Ventana Anti-HQ HRP (cat #760-4820) for 28 minutes at RT, and signals detected with Ventana DAB chromogen kit (cat #760-159) for 5 minutes at RT. Slides were counterstained with Ventana Hematoxylin II (cat #5266726001) for 8 minutes and Ventana Bluing reagent (cat #526676900) for 4 minutes. Slides were coverslipped and digitized using an Aperio AT2 scanner (Leica Biosystems Inc, Buffalo Grove, IL).”

[2] = target: T1, Human MAGEB2 (Melanoma-associated …); experiment: IHC on FFPE SCaBER cells (endogenous MAGEB2)
Protocol: as §1

| Binder | IHC % Frequency [1] [%] | IHC Intensity [1] | binding result (human MAGEB5) | IHC % Frequency [2] [%] | IHC Intensity [2] |
| --- | --- | --- | --- | --- | --- |
| 1C3 (antibody, V domains shown, also called MAGE-B2 (IC3); anti-MAGEB2 antibody 1C3) VH: QSLEESGGGLVQPEGSLTLTCTAFGVTLTNYYICWVRQAPGKGLEWVGCIDNANGRTYYASWAKGRFTISKTSSTTGTLQMTSLTAADTATYFCARSLATPLWGPGTLVTVSS VL: DIVMTQTPSSVEAAVGGTVTIKCQASQNISSYLAWYQQKPGQPPKLLIYRASTLASGVPSRFKGSGSGTQFTLTISDLECADAATYYCQSYDDSRSSNFFYAFGGGTEVVVKG | 0 | 1 | no binding (tested: 0.1 µg/ml) | 70 | 2 |
| 4G17 (antibody, IgG1, V domains shown, Rabbit monoclonal IgG1; Tested as supernatant and as small batch purified antibody; also called MAGE-B2 (4G17); anti-MAGEB2 antibody 4G17) VH: QSLEESGGGLVQPEGSLTLTCTASGVTLSNYYICWVRQAPGKGLEWIGCIDNVNGRTYYASWAKGRFTISKTSSTTGTLQMTSLTAADTATYFCARSLATPLWGPGTLVTVSS VL: DIVMTQTPASVEAAVGGTVTIKCQASQNIDSYLAWYQQKPGQPPKLLIYRASTLASGVPSRFKGSGSGTEFTLTISDLECADAATYYCQSYDDSRSSSFFYGFGGGTEVVVK | 0 | 0 | no binding (tested: 0.1 µg/ml) | 70 | 2 |
| 1J15 (antibody, IgG1, V domains shown, Rabbit monoclonal IgG1; Tested as supernatant and as small batch purified antibody; also called MAGE-B2 (IJ15); anti-MAGEB2 antibody 1J15) VH: QSLEESGGGLVQPEGSLTLTCTAFGFTLNNYYICWVRQAPGKGLEWIACIDNANGRTYYASWAKGRFTISKTSSTTVTLQMTSLTAADTATYFCARSLSTPLWGPGTLVTVSS VL: DIVMTQTPASVEAAVGGTVTIKCQASQSISSYLSWYQQKPGQPPKLLIYRASTLASGVPSRFRGSGSGTQFTLTISDLECADAATYYCQSYDDSSDNNFFYGFGGGTEVVVR | 0 | 0 | no binding (tested: 0.1 µg/ml) | 50 | 2 |
| 1I14 (antibody, V domains shown, also called MAGE-B2 (1i14)) VH: QSVEESGGRLVTPGTPLTLTCTISGFSLSSYAMSWVRQAPGKGLEWIGSIGGGGSAVYASWAKGRFTISKTSTTVDLRITSPTTEDTAMYFCGRGFYSIDLWGPGTLVTVSS VL: DVVMTQTPASVEATVGGTVTIKCQSSQSVYDNNALAWYQQNAGQRPRLLIYGASTLASGVPSRFSASGSGTEFTLTISDLECADAATYYCQCTYYVSSYQNDFGGGTEVVVKG | 0 | 0 | no binding (tested: 0.1 µg/ml) | 0 | 0 |
